Patent US20110312883A1 (NTF THERAPEUTICS, published 2011)
Positions count from the first letter of the chain named. Blank lines part the entries; values can stand above or below the binder they belong to.

Experiments:
[1] = biological target: T1, recombinant human GFRα2-Fc chimera (R&D Systems) (human, UniProt O00451 22-441); assay: capture on GFRα2-Fc held on Protein G spin column (after heparin column enrichment), 1.0 M NaCl wash, elution with 2.0 M MgCl2; eluate on non-reducing 15% SDS-PAGE, Coomassie stain
T1 construct: Bought reagent; also called GFRalpha2-Fc fusion protein; soluble recombinant GFRα2-Fc chimera; not shown: Fc portion of human IgG1
T1 sequence (looked up): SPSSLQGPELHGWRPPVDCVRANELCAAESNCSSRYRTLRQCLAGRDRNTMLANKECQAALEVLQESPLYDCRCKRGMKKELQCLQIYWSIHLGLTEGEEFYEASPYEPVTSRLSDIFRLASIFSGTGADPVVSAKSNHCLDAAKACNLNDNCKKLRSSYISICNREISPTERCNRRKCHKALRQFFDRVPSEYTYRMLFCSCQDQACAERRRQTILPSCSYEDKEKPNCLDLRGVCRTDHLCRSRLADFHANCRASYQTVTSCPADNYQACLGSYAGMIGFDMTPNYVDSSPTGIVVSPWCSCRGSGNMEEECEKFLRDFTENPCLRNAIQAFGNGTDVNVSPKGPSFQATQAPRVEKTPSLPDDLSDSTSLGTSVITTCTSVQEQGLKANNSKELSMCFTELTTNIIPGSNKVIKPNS
Procedure: Media from NRTN-expressing CHO cells (QMCF Technology at Icosagen Ltd) was thawed at room temperature. HITRAP™ Heparin HP columns (1 ml, GE Healthcare) were equilibrated with 10 ml of 10 mM Hepes, pH 7.2 and 1-10 ml of undiluted media was applied with a syringe according to the manufacturer's instructions. The media was collected and run through the column a second time. The columns were washed with 10 ml of 0.2 M NaCl in 10 mM Hepes, pH 7.2. The NRTN enriched samples were eluted with 5×600 μl of 10 mM Hepes pH 7.2, 1.2 M NaCl. Fractions number two and three were collected and concentrated to a final volume of 50-65 μl, according to the manufacturer's instruction in AmiconUltra 0.5 ml 10K concentrators (Millipore). The samples were then diluted 1:10 with 10 mM Hepes pH 7.2 to a final concentration of NaCl around 120 mM. Soluble recombinant GFRα2-Fc chimera (10-200 μg, R&D Systems) was attached to Protein G HP SpinTrap columns (GE Healthcare) in PBS according to the manufacturer's instructions. The 1:10 diluted samples were added to the GFRα2 columns and incubated for at least one hour at +4° C. with mixing. The columns were first washed with 4×400 μl of cold 10 mM Hepes pH 7.2, 1.0 M NaCl and thereafter with 4×400 μl of cold 10 mM Hepes pH 7.2, 0.1 M NaCl. The NRTN samples were eluted with 5×200 μl of pre-warmed (25° C.) 10 mM Hepes pH 7.2, 2.0 M MgCl₂. The eluted fractions were immediately diluted (1:2) with 10 mM Hepes pH 7.2, 0.150 M NaCl and concentrated with AMICONULTRA™ 0.5 ml 10K concentrators. The samples were further diluted in the same buffer (1:2) and subsequently concentrated three times to yield a final concentration of around 125 mM MgCl₂, and 150 mM NaCl in 10 mM Hepes pH 7.2. Samples of the purified proteins as well as a commercially available batch of neurturin were analyzed using […], under non reducing conditions, and visualized via Coomassie staining.

[2] = biological target: T1, recombinant human GFRα2-Fc chimera (R&D …); assay: precipitation from CHO medium with GFRα2-Fc and Protein G-Sepharose, western blot
Procedure: An aliquot of each media (400 μl) was incubated with recombinant human GFRα2-Fc chimera (0.4 μg, R&D Systems), antibodies to the V5-epitope (0.4 μg, Invitrogen) or antibodies to NRTN (0.4 μg, R&D Systems) for 1 h at +4° C. with mixing. Protein G has a strong affinity for antibodies from mouse and goat as well as for the Fc portion of human IgG₁ in the recombinant GFRα2-Fc chimera. Therefore Protein G-Sepharose was added to the samples and the incubation was continued for 1 h at +4° C. with mixing. After pelleting, the samples were eluted from the protein G-Sepharose with reducing Laemmli buffer and loaded on SDS-PAGE. For Western blot analysis of the V5-tagged variants of NRTN, an anti-V5 antibody (Invitrogen) was used with samples loaded on SDS-PAGE under reducing conditions. For Western blot analysis of the untagged variants of NRTN, an anti-NRTN antibody (R&D Systems) was used with samples loaded on SDS-page under non-reducing conditions.

B1: NRTN WT (ligand)
mature neurturin monomer of the disulfide-linked homodimer: ARLGARPCGLRELEVRVSELGLGYASDETVLFRYCAGACEAAARVYDLGLRRLRQRRRLRRERVRAQPCCRPTAYEDEVSFLDAHSRYHTVHELSARECACV
notes: also called purified untagged mature wild type neurturin made by the same method as the variants
- binding result [1]: binds

B2: neurturin variant N1 (untagged, purified) (ligand)
chain: B1 mature neurturin monomer of the disulfide-linked homodimer with R52A, R56A, R58A
notes: Dimeric protein; also called NRTN N1; neurturin mutant N1
- binding result [1]: binds

B3: neurturin variant N2 (untagged, purified) (ligand)
chain: B1 mature neurturin monomer of the disulfide-linked homodimer with R54A, R61A, R63A
notes: Dimeric protein; also called NRTN N2; neurturin mutant N2
- binding result [1]: binds

B4: neurturin variant N4 (untagged, purified) (ligand)
chain: B1 mature neurturin monomer of the disulfide-linked homodimer with R51A, R54Q, Q55G, R56Q, R57G, R58A, R60V, R61G, E62S
notes: Dimeric protein; also called NRTN N4; neurturin mutant N4
- binding result [1]: binds

B6: V5-tagged wild-type neurturin (ligand)
chain: ARGKPIPNPLLGLDSTSGARLGARPCGLRELEVRVSELGLGYASDETVLFRYCAGACEAAARVYDLGLRRLRQRRRLRRERVRAQPCCRPTAYEDEVSFLDAHSRYHTVHELSARECACV
notes: Secreted from transiently transfected CHO cells and used as crude conditioned medium; also called NRTN WT; E779
- binding result [2]: binds

Second part, the binder after the results:

- binding result [1]: binds
B5: neurturin variant N3 (untagged, purified) (ligand)
chain: B1 mature neurturin monomer of the disulfide-linked homodimer with R52A, R54A, R56A, R58A, R61A
notes: Dimeric protein; also called NRTN N3; neurturin mutant N3

- binding result [2]: binds
B7: V5-tagged neurturin variant NV3 (ligand)
chain: B6 chain with R70A, R72A, R74A, R76A, R79A
notes: Crude conditioned medium of transfected CHO cells; also called NRTN NV3; NV3 (from N3)

- binding result [2]: binds
B8: V5-tagged neurturin variant NV4 (ligand)
chain: B6 chain with R69A, R72Q, Q73G, R74Q, R75G, R76A, R78V, R79G, E80S
notes: Crude conditioned medium of transfected CHO cells; also called NRTN NV4; NV4 (from N4)

- binding result [2]: binds
B9: V5-tagged neurturin variant NV2 (ligand)
chain: B6 chain with R72A, R79A, R81A
notes: Crude conditioned medium of transfected CHO cells; also called NRTN NV2; NV2 (from N2)

- binding result [2]: binds
B10: V5-tagged neurturin variant NV1 (ligand)
chain: B6 chain with R70A, R74A, R76A
notes: Crude conditioned medium of transfected CHO cells; also called NRTN NV1; NV1 (from N1)
